In US20040106557A1 (LICENTIA, published 2004):
Bridge positions count the residues as written; N and C are the ends. Ends that are not written are not given here.

Target: T1, Prostate specific antigen (PSA), purified from human seminal fluid (human, UniProt P07288 25-261)
Test: cell-based or functional assay

| Binder | PSA-peptide/PSA ratio |
| --- | --- |
| CVFTSNYAFC (disulfide 1-10 (inferred)) [A-1-4 (A-1 N6)] | 2.4 ratio |
| CVAYCIQHHCWTC (disulfide (positions not given here)) [C-4-3 (C-4 Q7)] | 2.1 ratio |
| CVFTSNYNYC (disulfide 1-10 (inferred)) [A-1-3 (A-1 N6N8Y9)] | 1.9 ratio |
| CVFTSNYAYC (disulfide 1-10 (inferred)) [A-1-2 (A-1 N6Y9)] | 2.3 ratio |
| CVFTSDYAFC (disulfide 1-10) [chemically synthesized peptide A-1 (A-1-1, A-1 parent)] | 2.3 ratio |
| cyclo(HHCWTVAYCIE) (disulfide 3-9 (inferred)) [C-4-7 (cyclic with peptide bond)] | 0.8 ratio |
| CVAYCIEHHCATC (disulfide (positions not given here); not fully specified) [C-4-6 (C-4 A11)] | 0.9 ratio |
| CVFAHNYNALVC (disulfide 1-12 (inferred)) [B-2-3 (B-2 N8A9)] | 2.6 ratio |
| CVAYAIQHHC (disulfide 1-10 (inferred)) [C-4-4 (C-4 10A5Q7)] | 1.1 ratio |
| CVFTSNAAYC (disulfide 1-10 (inferred)) [A-1-6 (A1 N6Y7Y9)] | 1 ratio |
| CVFAHNYNYC (disulfide 1-10 (inferred)) [B-2-4 (B-2 10 N8)] | 1.9 ratio |
| CVFAHNANYLVC (disulfide 1-12 (inferred)) [B-2-5 (B-2 A7)] | 1.1 ratio |
| CVAYCIEHHCWTC (disulfide 1-13, 5-10) [chemically synthesized peptide C-4 without GA flanks (C-4-1, C4 parent)] | 2.1 ratio |
| CVFAHNYDYLVC (disulfide 1-12) [chemically synthesized peptide B-2 (B-2-1, B-2 parent)] | 3 ratio |
| CVAACIEHHCWTC (disulfide (positions not given here)) [C-4-5 (C-4 A4)] | 1 ratio |
| CVFAHNYNYLVC (disulfide 1-12 (inferred)) [B-2-2 (B-2 N8)] | 3.1 ratio |
| CVYTSDYAYC (disulfide 1-10 (inferred)) [A-1-5 (A-1 Y39)] | 1 ratio |
| CVAFCIEHHCWTC (disulfide (positions not given here)) [C-4-2 (C-4 F4)] | 2.3 ratio |

Target: T1, Prostate specific antigen (PSA), …
Test: phage display, three rounds of selection on PSA captured by MAb 5E4
Experimental: (§1) The screening of phage display peptide libraries was performed essentially as described by Koivunen et al. (21). Briefly, each phage library was separately screened with PSA captured on microtiter wells coated with the monoclonal antibody 5E4, which binds both free and complexed PSA (24). 33 nM PSA in TBS buffer containing 10 g/L BSA (BSA-TBS) was incubated in wells coated with MAb 5E4 for 1 h, then the wells were washed to remove unbound PSA. An aliquot of each phage library ([…] infectious particles) was added to the wells, and incubated for 3 h at 22° C. during the first round of panning and for 1 h during subsequent rounds. The phage solution was removed and the wells were washed with TBS containing 0.5% Tween 20. The panning was also performed in the prescence of 200 μM ZnCl2. The bound phage were eluted with 0.1 M glycine buffer, pH 2.2 and neutralized with 1 M Tris base. The eluted phage were amplified by infection of E. coli K91 kan cells, and purified by precipitation with polyethylene glycol. After three rounds of selection and amplification single stranded DNA from individual phage clones was prepared and the peptide sequences were determined by sequencing the relevant part of the viral DNA. Sequencing was performed with an ABI 310 Genetic analyzer and Dye Terminator Cycle Sequencing Core Kit (PE Applied Biosystems, Foster City, Calif., USA) using the oligonucleotide 5′ […] 3′ as a primer.

| Binder | binding result |
| --- | --- |
| CVEYCWEGSCYVC (not shown: fUSE5 phage protein III and flanking residues) [phage-displayed peptide C-2 (fUSE5 phage clone)] | binds |
| CVIYDGNHWC (not shown: fUSE5 phage protein III and flanking residues) [phage-displayed peptide A-2 (fUSE5 phage clone)] | binds |
| CTFSVDYKYLMC (not shown: fUSE5 phage protein III and flanking residues) [phage-displayed peptide B-1 (fUSE5 phage clone)] | binds |
| CVFDDLYSFC (not shown: fUSE5 phage protein III and flanking residues) [phage-displayed peptide A-4 (fUSE5 phage clone)] | binds |
| CVFAHNYDYLVC (not shown: fUSE5 phage protein III and flanking residues) [phage-displayed peptide B-2 (fUSE5 phage clone)] | binds |
| CIFEPDYSYC (not shown: fUSE5 phage protein III and flanking residues) [phage-displayed peptide A-3 (fUSE5 phage clone)] | binds |
| CLLYCHDACWWVC (not shown: fUSE5 phage protein III and flanking residues) [phage-displayed peptide D-2 (fUSE5 phage clone)] | binds |
| CVFTSDYAFC (not shown: fUSE5 phage protein III and flanking residues) [phage-displayed peptide A-1 (fUSE5 phage clone)] | binds |
| CVAYCIEHHCWTC (not shown: fUSE5 phage protein III and flanking residues) [phage-displayed peptide C-4 (fUSE5 phage clone)] | binds |
| CVAYCEEWECYVC (not shown: fUSE5 phage protein III and flanking residues) [phage-displayed peptide C-3 (fUSE5 phage clone)] | binds |
| CLSTCAQSCRISC (not shown: fUSE5 phage protein III and flanking residues) [phage-displayed peptide D-1 (fUSE5 phage clone)] | binds |
| CVSYCLFEFCYVC (not shown: fUSE5 phage protein III and flanking residues) [phage-displayed peptide C-1 (fUSE5 phage clone)] | binds |
| CVSYCDGLQCWMC (not shown: fUSE5 phage protein III and flanking residues) [phage-displayed peptide C-5 (fUSE5 phage clone)] | binds |
| CRFDKEYRTLVC (not shown: fUSE5 phage protein III and flanking residues) [phage-displayed peptide B-3 (fUSE5 phage clone)] | binds |

Target: T1, Prostate specific antigen (PSA), …
Test: phage display selection on PSA captured by MAb 5E4, 200 µM ZnCl2 in the panning buffer
Experimental: as §1

| Binder | binding result |
| --- | --- |
| CVTYCYGEVCYYC (isolated with 200 µM ZnCl2 in the panning buffer; not shown: fUSE5 phage protein III and flanking residues) [phage-displayed peptide Z-1 (fUSE5 phage clone)] | binds |
| CAAYCVAGLCYGC (cysteine pairing not given here; also: displayed on fUSE5 phage protein III, isolated with 200 µM ZnCl2; not shown: fUSE5 phage protein III and flanking residues) [phage-displayed peptide Z-2 (fUSE5 phage clone)] | binds |
| CVWYTGNTWC (not fully specified; cysteine pairing not given here; also: displayed on fUSE5 phage protein III with flanking residues, isolated with 200 µM ZnCl2; not shown: fUSE5 phage protein III and flanking residues) [phage-displayed peptide Z-6 (fUSE5 phage clone)] | binds |
| CVFDALYTFC (cysteine pairing not given here; also: displayed on fUSE5 phage protein III with flanking residues, isolated with 200 µM ZnCl2; not shown: fUSE5 phage protein III and flanking residues) [phage-displayed peptide Z-7 (fUSE5 phage clone)] | binds |
| CVAYCISSLCYYC (cysteine pairing not given here; also: displayed on fUSE5 phage protein III, isolated with 200 µM ZnCl2; not shown: fUSE5 phage protein III and flanking residues) [phage-displayed peptide Z-5 (fUSE5 phage clone)] | binds |
| CVQYCIGGDCWFC (cysteine pairing not given here; also: displayed on fUSE5 phage protein III, isolated with 200 µM ZnCl2; not shown: fUSE5 phage protein III and flanking residues) [phage-displayed peptide Z-3 (fUSE5 phage clone)] | binds |
| CVVYCDSMKCWTC (cysteine pairing not given here; also: displayed on fUSE5 phage protein III, isolated with 200 µM ZnCl2; not shown: fUSE5 phage protein III and flanking residues) [phage-displayed peptide Z-4 (fUSE5 phage clone)] | binds |
| CVIYPGNVWC (cysteine pairing not given here; also: displayed on fUSE5 phage protein III with flanking residues, isolated with 200 µM ZnCl2; not shown: fUSE5 phage protein III and flanking residues) [phage-displayed peptide Z-8 (fUSE5 phage clone)] | binds |
